Source: patent US7902341B2, “Methods and compositions for modulating somatolactogenic functions” (Trustees of the University of Pennsylvania, priority 1999, dated 2011)

Tested on: Nb2 cells
Experiment: Nb2 cell proliferation (3H-thymidine) to assess CypB modulation of somatolactogenic action
Type: cell-based, rat
Method: The effect of exogenous CypB on PRL-driven proliferation was examined with the rat Nb2 T-cell and the human T47D breast cancer line. […] This dose-dependent biphasic effect was most prominent at physiologic concentrations (5-10 mM) of CypB and PRL (50 pM) found in human serum. […] To determine the effect of CypB on cellular growth driven by the larger family of cytokines, to which PRL belongs, proliferation driven by interleukin-2 (IL-2), IL-3 and GH was examined.
Nb2-cells (5×10^4; PRL-dependent, rat T-lymphoma) were plated in each well of 96 well plates in a defined DMEM-serum free medium (0.1 mM 2-mercaptoethanol, 1% penicillin/streptomycin, and 1% ITS+(Calbiochem)). Cells were rested for 24 hours at 37° C. in this defined medium in the absence of PRL before the addition of 5-500 pM PRL (either as human pituitary isolated PRL, National Hormone and Pituitary Program, NIDDK; recombinant human PRL from E. coli, Genzyme; or recombinant human PRL from Drosophila S2 cells) alone or premixed with 1-2000 fold excess of purified CypB. Parallel studies were performed using human pituitary-derived GH (National Hormone and Pituitary Program, NIDDK). Cultures were incubated for 48 hours at 37° C. and proliferation was evaluated by the addition of 0.5 μCi of ^3H-thymidine for four hours followed by harvesting and scintillography. […]

B1: Myc-tagged PRL: recombinant human PRL with myc-tag expressed in Drosophila S2 cells (protein)
chain: LPICPGGAARCQVTLRDLFDRAVVLSHYIHNLSSEMFSEFDKRYTHGRGFITKAINSCHTSSLATPEDKEQAQQMNQKDFLSLIVSILRSWNEPLYHLVTEVRGMQEAPEAILSKAVEIEEQTKRLLEGMELIVSQVHPETKENEIYPVWSGLPSLQMADEESRLSAYYNLLHCLRRDSHKIDNYLKLLKCRIIHNNNC
modifications: left off: small tags and cut ends
notes: recombinant human PRL with myc-tag expressed in Drosophila S2 cells
bioactivity in Nb2 bioassays (protein secreted by Drosophila S2 cells): functionally bioactive

B2: PRL: human prolactin, pituitary isolated or recombinant (protein)
chain: LPICPGGAARCQVTLRDLFDRAVVLSHYIHNLSSEMFSEFDKRYTHGRGFITKAINSCHTSSLATPEDKEQAQQMNQKDFLSLIVSILRSWNEPLYHLVTEVRGMQEAPEAILSKAVEIEEQTKRLLEGMELIVSQVHPETKENEIYPVWSGLPSLQMADEESRLSAYYNLLHCLRRDSHKIDNYLKLLKCRIIHNNNC
modifications: left off: small tags and cut ends
notes: human prolactin, pituitary isolated or recombinant
PRL concentration at which the sigmoid Nb2 growth curve plateaus (Nb2 cells stimulated with PRL alone): approximately 2 ng PRL/ml
